{"source": "patent US20050106177A1", "assay_in_all_cases": "cell-based or functional assay", "key": {"[1]": {"molecular_target": "HXBc2 envelope glycoproteins on recombinant HIV-1 (HIV-1, TCLA strain HXBc2) (UniProt P04578)"}, "[2]": {"molecular_target": "YU2 envelope glycoproteins on recombinant HIV-1 (HIV-1, primary isolate YU2) (UniProt P35961)", "sequence (P35961 32-843)": "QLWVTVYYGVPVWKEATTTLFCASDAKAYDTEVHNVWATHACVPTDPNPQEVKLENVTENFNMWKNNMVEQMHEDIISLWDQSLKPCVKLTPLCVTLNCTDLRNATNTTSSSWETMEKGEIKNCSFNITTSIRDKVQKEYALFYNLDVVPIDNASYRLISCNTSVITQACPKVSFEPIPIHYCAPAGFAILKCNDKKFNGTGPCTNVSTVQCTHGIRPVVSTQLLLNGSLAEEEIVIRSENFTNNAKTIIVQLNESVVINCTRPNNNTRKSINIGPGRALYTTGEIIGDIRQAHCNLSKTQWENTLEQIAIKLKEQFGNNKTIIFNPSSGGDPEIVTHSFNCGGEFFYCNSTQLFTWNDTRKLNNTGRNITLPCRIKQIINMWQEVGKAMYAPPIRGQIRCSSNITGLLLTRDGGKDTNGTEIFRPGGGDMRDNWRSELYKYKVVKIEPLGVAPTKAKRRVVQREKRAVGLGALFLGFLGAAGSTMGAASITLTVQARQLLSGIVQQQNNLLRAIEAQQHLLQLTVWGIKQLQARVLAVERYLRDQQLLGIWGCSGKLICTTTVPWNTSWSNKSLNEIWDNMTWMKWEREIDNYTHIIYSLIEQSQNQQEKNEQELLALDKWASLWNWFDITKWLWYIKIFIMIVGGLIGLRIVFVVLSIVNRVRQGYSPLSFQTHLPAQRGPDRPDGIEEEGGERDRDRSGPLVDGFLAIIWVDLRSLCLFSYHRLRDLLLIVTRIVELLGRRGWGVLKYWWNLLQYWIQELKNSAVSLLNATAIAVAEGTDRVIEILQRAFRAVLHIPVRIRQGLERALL"}, "[3]": {"molecular_target": "ADA envelope glycoproteins on recombinant HIV-1 (HIV-1, primary isolate ADA)"}}, "data": [{"substance": "IgG1b12 antibody", "values": [{"measurement": "90% neutralization of recombinant virus, single-round luciferase entry assay (g/ml (so in the source); symbol garbled))", "setting": "[1]", "result": 1.25}, {"measurement": "50% neutralization of recombinant virus, single-round luciferase entry assay (:g/ml (so in the source); symbol garbled))", "setting": "[2]", "result": 5}, {"measurement": "90% neutralization of recombinant virus, single-round luciferase entry assay (:g/ml (so in the source); symbol garbled))", "setting": "[2]", "result": "> 20"}, {"measurement": "50% neutralization of recombinant virus, single-round luciferase entry assay (:g/ml (so in the source); symbol garbled))", "setting": "[3]", "result": 2.5}, {"measurement": "90% neutralization of recombinant virus, single-round luciferase entry assay (:g/ml (so in the source); symbol garbled))", "setting": "[3]", "result": "> 10"}]}]}
